Results from patent US20240200081A1, “NUCLEIC ACID MOLECULE CONJUGATE HAVING PROLONGED IN VIVO HALF-LIFE” (APTACURE THERAPEUTICS LIMITED, published 2024).

How the values were obtained:
sclerostin [1] = target: sclerostin (UniProt Q9BQB4 Q9BQB4:24-213); assay: cell_activity; inhibition potency, TOP-Wnt luciferase reporter; conditions: tags: expressed from transfected sclerostin plasmid in MC3T3-E1 cells
Method: To study the inhibition potency of aptamers against sclerostin's antagonistic effect on Wnt signaling, a TOP-Wnt induced luciferase reporter assay was used in osteoblast MC3T3-E1 cells (van Bezooijen, Svensson et al. 2007, Shum, Chan et al. 2011).
MC3T3-E1 cells were seeded in 24-well plates and cells were transfected with corresponding reporter plasmid (100 ng), Wnt3a plasmid (800 ng) and sclerostin plasmid (800 ng) as necessary using FuGENE HD transfection reagent (Promega) in the following day. 10 hours after transfection, culture medium was changed to fresh medium and cells were treated with aptamers/antibody. 24 hours after treatment, each well of cells was lysed with 100 μl passive lysis buffer and 20 μl was taken for analysis. The Luciferase Assay Reagent II and Stop & Glo Reagent were prepared and added automatically by SpectraMax i3x Multi-Mode Detection Platform (Molecular Device) according to the manufacturer's protocol (Promega) and data was analyzed accordingly (Grentzmann, Ingram et al. 1998, McNabb, Reed et al. 2005).

sclerostin [2] = target: sclerostin (Homo sapiens, UniProt Q9BQB4 SEQ:1-190); assay: ELONA; PBS, 1 mM MgCl2, RT; p158 prints 3' end as CT GCCC, APC001 as U G C C; conditions: tags: His6 (SELEX protein); recombinant human sclerostin
Sequence of sclerostin (Homo sapiens, UniProt Q9BQB4 SEQ:1-190) (Q9BQB4 24-213): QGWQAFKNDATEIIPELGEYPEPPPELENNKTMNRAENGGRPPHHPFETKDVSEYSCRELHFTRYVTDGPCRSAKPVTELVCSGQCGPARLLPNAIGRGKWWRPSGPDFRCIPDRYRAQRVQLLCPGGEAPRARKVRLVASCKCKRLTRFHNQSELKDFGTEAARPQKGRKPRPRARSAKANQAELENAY
Method: An Enzyme-linked OligoNucleotide Assay (ELONA) was performed to determine the binding affinity of the aptamer candidates to sclerostin (Drolet, Moon-McDermott et al. 1996). Similarly, an Enzyme-linked ImmunoSorbent Assay (ELISA) was performed to determine the binding affinity of anti-sclerostin antibody to human sclerostin (Engvall and Perlmann 1971). 160 ng purified recombinant human sclerostin was coated to 96-well microtiter plate in 100 μl PBS by incubating at 4° C. overnight. The plate was then blocked with blocking buffer (PBS, 0.1% Tween 20 and 1% BSA) for 1 h at room temperature and washed with SELEX B&W buffer (PBS, 1mM MgCl2, 0.1% Tween 20 and 0.1% BSA) for 4 times. The aptamer candidates were denatured at 95° C. for 10 min and rapidly cooled on ice for 10 min before use. Appropriate concentrations of biotinylated aptamers/antibody were added into each well, then added SELEX B&W buffer to 100 μl and incubated for 45 min at room temperature with continuous gentle shaking. After binding, the plate was washed with SELEX B&W buffer for 4 times to remove non-specific and very weak binding, followed by washing with PBST+0.1% BSA for 4 times. […] Absorbance at 450 nm was measured with microplate reader (Stoltenburg, Krafcikova et al. 2016). Data was analyzed with Origin software (OriginLab, Northampton, MA). […]

Sequence of sclerostin (UniProt Q9BQB4 Q9BQB4:24-213) (Q9BQB4 24-213, one chain of several): as the sequence (Q9BQB4 24-213) above

Binder CGGGGTGTGGGTTCGTCGTTAGCTTGATTTGGCAGCTGCC (ssDNA, 2'-OMe on first 4 (CGGG) and last 4 nucleotides; 3' idT) [modified aptscl 56] has an EC50 (sclerostin [1]) of 14 µg/mL and a Kd (sclerostin [2]) of 6.55 nM.
